This note sets out measurements from patent publication US20240174712A1, “COMPOSITIONS AND METHODS FOR PURIFYING ALPHA-1 ANTITRYPSIN USING PEPTIDE LIGANDS” (North Carolina State University, priority 2022, published 2024).

No end group written: not given here.

The target in one experiment is T1, human AAT (Homo sapiens, UniProt P01009).
T1 construct: purchased CSL Behring (King of Prussia, PA, USA)
Description: Static binding capacity and affinity of peptide-Toyopearl resins (AAT adsorption isotherms, Langmuir fit). The settings on record: pure AAT in PBS at pH 7.4; Langmuir isotherm fit. The procedure: Static binding capacity and affinity of peptide-Toyopearl resins. […] Aliquots of 50 μL of peptide-Toyopearl resin were transferred in a tube, swollen in 20% v/v aqueous methanol, washed in MilliQ water, and finally equilibrated in PBS at pH 7.4. The resin aliquots were individually incubated with 0.5 mL of a solution of AAT at different concentrations (0.1, 0.25, 0.5, 0.75, 1.0, 1.5, 2.0, and 5.0 mg/mL) for 1.5 hrs at room temperature under gentle rotation. After incubation, the resin aliquots were centrifuged and the supernatants collected as unbound (UB) fraction; the resins were also washed with 0.5 mL of PBS for 30 min, and the supernatants were combined with the corresponding UB fractions. These were finally analyzed by Micro BCA Protein Assay kit to determine the concentration C* of unbound AAT in solution at the equilibrium with the resin, from which the amount q of bound AAT per volume of resin was determined by mass balance. The values of q vs. C* were plotted and fit using a Langmuir isotherm (Equation 1) to determine the values of maximum binding capacity (Qmax) and affinity dissociation constant (KD)).
Evaluation of AAT-binding peptides via in vitro and in silico AAT binding studies. […] Toyopearl resin was selected for ligand conjunction owing to its high chemical and mechanical stability as well as low non-specific protein adsorption, which make it an ideal substrate for direct peptide conjugation and protein chromatography.

Experiment [1] has as its target T2, Human Alpha-1 antitrypsin (AAT) (human, UniProt P01009 25-418).
T2 construct: Pure AAT in buffer, as used in the isotherm and breakthrough studies; also called α-1 antitrypsin; human AAT
Description: static adsorption isotherm, pure AAT in PBS pH 7.4, Langmuir fit. As to the method: Static binding capacity and affinity of peptide-Toyopearl resins. The selected sequences were synthesized on Toyopearl AF-Amino 650 M resin as described herein and evaluated via isotherm binding studies of AAT in non-competitive mode (e.g., pure AAT in PBS at pH 7.4) as described in prior work. Aliquots of 50 μL of peptide-Toyopearl resin were transferred in a tube, swollen in 20% v/v aqueous methanol, washed in MilliQ water, and finally equilibrated in PBS at pH 7.4. The resin aliquots were individually incubated with 0.5 mL of a solution of AAT at different concentrations (0.1, 0.25, 0.5, 0.75, 1.0, 1.5, 2.0, and 5.0 mg/mL) for 1.5 hrs at room temperature under gentle rotation. After incubation, the resin aliquots were centrifuged and the supernatants collected as unbound (UB) fraction; the resins were also washed with 0.5 mL of PBS for 30 min, and the supernatants were combined with the corresponding UB fractions. These were finally analyzed by Micro BCA Protein Assay kit to determine the concentration C* of unbound AAT in solution at the equilibrium with the resin, from which the amount q of bound AAT per volume of resin was determined by mass balance. The values of q vs. C* were plotted and fit using a Langmuir isotherm (Equation 1) to determine the values of maximum binding capacity (Qₘₐₓ) and affinity dissociation constant (KD)).

Experiment [2] has as its target T2, Human Alpha-1 antitrypsin (AAT). Description: dynamic binding capacity at 10% breakthrough, PBS pH 7.4, residence time 2 min. The procedure:
(§1) Dynamic binding capacity of peptide Toyopearl resins. The dynamic binding capacity at 10% breakthrough (DBC_{10%}, mg of AAT per mL resin) of the selected peptide-Toyopearl resins and the control AAT Select resin was measured. A volume of 0.1 mL of resin was wet packed in a Vici Jour PEEK column, washed with 10 column volumes (CVs) of 20% v/v ethanol, deionized water (3 CVs), and finally equilibrated with 10 CVs of binding buffer. The binding buffers used in this study were (i) 0.15M NaCl in 20 mM Bis-Tris HCl buffer at pH 6.0, (ii) PBS buffer at pH 7.4, and (iii and iv) 0.15M NaCl in 50 mM Tris HCl buffer at pH 7.4 or pH 8.0. A volume of 2 mL of solution of human AAT at 1 mg/mL in PBS buffer was continuously loaded on the column at the flow rate of either 0.05 mL/min (residence time, RT: 2 min) or 0.02 mL/min (RT: 5 min). After loading, the resin was washed with 10 CVs of binding buffer at the flow rate of 0.1 mL/min. AAT elution was then performed with 20 CVs of PBS in 2 M MgCl₂ at pH 7.4 at the flow rate of 0.2 mL/min. The resin was regenerated with 10 CVs of glycine buffer at pH 2.0 at the flow rate of 0.2 mL/min. The effluents were continuously monitored by UV spectrometry at 280 nm and the resulting chromatograms were utilized to calculate the DBC_{10%} of AAT.
(§2) Evaluation of AAT-binding peptides via dynamic binding measurements. Following the equilibrium binding studies, the selected peptide-Toyopearl resins were evaluated under dynamic conditions to evaluate the interplay of kinetic factors—chiefly, the AAT transport within the chromatographic particles and the formation of AAT:peptide complexes—on the resultant binding capacity. To that end, the dynamic binding capacity at 10% breakthrough (DBC_{10%}, mg of AAT per mL of resin) of the peptide-Toyopearl resins was measured at two values of residence time (RT), namely 2 and 5 min, and four different buffer compositions, namely 20 mM Bis-Tris HCl buffer (0.15M NaCl) at pH 6.0, PBS buffer at pH 7.4, and 50 mM Tris HCl buffer (0.15M NaCl) at pH 7.4 and 8.0, and compared with that of AAT Select from Cytiva (FIG. 4; the corresponding breakthrough curves are reported in FIG. 9).

Experiment [3] shares this target. Description: dynamic binding capacity at 10% breakthrough, PBS pH 7.4, residence time 5 min. The procedure:
as §1, §2

Experiment [4] has the same target. Description: dynamic binding capacity at 10% breakthrough, Tris buffer pH 7.4, residence time 2 or 5 min.

T2 sequence (P01009 25-418 limits assumed): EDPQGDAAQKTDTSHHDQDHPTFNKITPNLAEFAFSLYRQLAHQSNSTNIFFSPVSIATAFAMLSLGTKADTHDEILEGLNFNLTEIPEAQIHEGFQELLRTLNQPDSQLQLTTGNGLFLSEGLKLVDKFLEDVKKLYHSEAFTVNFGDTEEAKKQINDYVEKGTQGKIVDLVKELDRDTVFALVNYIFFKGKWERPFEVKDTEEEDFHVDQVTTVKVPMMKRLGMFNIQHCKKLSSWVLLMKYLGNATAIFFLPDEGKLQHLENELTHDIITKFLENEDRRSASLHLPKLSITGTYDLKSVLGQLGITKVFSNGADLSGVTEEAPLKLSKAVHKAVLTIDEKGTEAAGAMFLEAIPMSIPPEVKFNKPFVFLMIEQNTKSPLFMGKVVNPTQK
T1 sequence (P01009 25-418): as the sequence (P01009 25-418 limits assumed) above

In the case of “KHAWIFG-Toyopearl: peptide ligand KHAWIFG conjugated on Toyopearl AF-Amino-650M resin (KHAWIFG-{Toyopearl AF‑Amino‑650M resin})”, the “Qmax (mgAAT per mLR)” value in the experiment with human AAT is 7.2 mgAAT per mLR.
Turning to “SHWHWAG-Toyopearl: peptide ligand SHWHWAG conjugated on Toyopearl AF-Amino-650M resin (SHWHWAG-{Toyopearl AF‑Amino‑650M resin})”, the “Qmax (mgAAT per mLR)” value with human AAT is on record as 7.0 mgAAT per mLR.
In general, Kd refers to the equilibrium constant for the complex coming apart. A higher Kd goes with weaker binding. As for Alpha-1 Antitrypsin Select resin, in experiment [1], the Kd worked out at 510 nM. Also, the Qmax (mgAAT per mLR) in experiment [1] came to 13.5. For the same molecule, the DBC10% in experiment [2] turned out to be 12.3 mg/mL; in experiment [3], 12.8 mg/mL; in experiment [4] it was 12 mg/mL.
On to “NHNKIHG-Toyopearl: peptide ligand NHNKIHG conjugated on Toyopearl AF-Amino-650M resin (NHNKIHG-{Toyopearl AF‑Amino‑650M resin})”, for which, in the experiment with human AAT, the “Qmax (mgAAT per mLR)” value came to 6.3 mgAAT per mLR.
As to “KFHAWNG-Toyopearl: peptide ligand KFHAWNG conjugated on Toyopearl AF-Amino-650M resin (KFHAWNG-{Toyopearl AF‑Amino‑650M resin})”, the “Qmax (mgAAT per mLR)” value in the experiment with human AAT came out at 8.9 mgAAT per mLR.

B1: SHWHWAG-Toyopearl (peptide)
peptide: SHWHWAG-{Toyopearl AF‑Amino‑650M resin}
modifications: not fully specified; printed as SHWHWAG-Toyopearl
With B1, in experiment [1], the affinity, expressed as Kd, was 3280 nM and the Qmax turned out to be 7 mgAAT per mLR.

B2: AAHFHKG-Toyopearl (peptide)
peptide: AAHFHKG-{Toyopearl AF‑Amino‑650M resin}
modifications: not fully specified; printed as AAHFHKG-Toyopearl
In experiment [1], B2 returned a Kd of 4710 nM and a Qmax of 8.7 mgAAT per mLR.

B3: KHSKAIAAG-Toyopearl (peptide)
peptide: KHSKAIAAG-{Toyopearl AF‑Amino‑650M resin}
modifications: not fully specified; printed as KHSKAIAAG-Toyopearl
As for B3, in experiment [1], the Kd was 3620 nM and the Qmax stood at 9.1 mgAAT per mLR.

B4: KFHAWNG-Toyopearl (peptide)
peptide: KFHAWNG-{Toyopearl AF‑Amino‑650M resin}
modifications: not fully specified; printed as KFHAWNG-Toyopearl
In the case of B4, in experiment [1], the Kd was 2480 nM and the Qmax is 8.9 mgAAT per mLR.

B5: ANAKIKKKG-Toyopearl (peptide)
peptide: ANAKIKKKG-{Toyopearl AF‑Amino‑650M resin}
modifications: not fully specified; printed as ANAKIKKKG-Toyopearl
Turning to B5, in experiment [1], the Kd stood at 6700 nM and the Qmax came out at 3.51 mgAAT per mLR.

B6: NHNKIHG-Toyopearl (peptide)
peptide: NHNKIHG-{Toyopearl AF‑Amino‑650M resin}
For B6, in experiment [1], the affinity, expressed as Kd, was 2320 nM and the Qmax was 6.3 mgAAT per mLR.

B7: KAWFKHWNG-Toyopearl (peptide)
peptide: KAWFKHWNG-{Toyopearl AF‑Amino‑650M resin}
modifications: not fully specified; printed as KAWFKHWNG-Toyopearl
In experiment [1], B7 came in with a Kd of 870 nM and a Qmax of 10.2 mgAAT per mLR.

B8: KHAWIFG-Toyopearl (peptide)
peptide: KHAWIFG-{Toyopearl AF‑Amino‑650M resin}
modifications: not fully specified; printed as KHAWIFG-Toyopearl
With B8, in experiment [1], binding was characterised by a dissociation constant (Kd) of 1420 nM and the Qmax came to 7.2 mgAAT per mLR.

B9: KWKHSHKWG-Toyopearl (peptide)
peptide: KWKHSHKWG-{Toyopearl AF‑Amino‑650M resin}
modifications: not fully specified; printed as KWKHSHKWG-Toyopearl
The molecule B9 showed a Kd in experiment [1] of 630 nM. Moreover, the Qmax in experiment [1] came to 15.8 mgAAT per mLR. Further, the DBC10% in experiment [2] is 8.9 mg/mL; in experiment [3] it was 11.6 mg/mL.

B10: WHAKKSKFG-Toyopearl (peptide)
peptide: WHAKKSKFG-{Toyopearl AF‑Amino‑650M resin}
modifications: not fully specified; printed as WHAKKSKFG-Toyopearl
B10: in experiment [1], the Kd amounted to 2090 nM and the Qmax came to 12.9 mgAAT per mLR. Also, in experiment [2], the DBC10% was found to be 10.3 mg/mL. This molecule also registered a DBC10% in experiment [3] of 12.7 mg/mL.

B11: WHAKKSHFG-Toyopearl (peptide)
peptide: WHAKKSHFG-{Toyopearl AF‑Amino‑650M resin}
modifications: not fully specified; printed as WHAKKSHFG-Toyopearl
On to B11, for which, in experiment [1], the Kd turned out to be 950 nM and the Qmax stood at 16.3 mgAAT per mLR. The DBC10% in experiment [2] was determined as 9.3 mg/mL. The DBC10% in experiment [3] was 12.5 mg/mL.

B12: FEKWAKAHG-Toyopearl (peptide)
peptide: FEKWAKAHG-{Toyopearl AF‑Amino‑650M resin}
modifications: not fully specified; printed as FEKWAKAHG-Toyopearl
In experiment [1], B12 showed a Kd of 4670 nM and a Qmax of 5.1 mgAAT per mLR.

B13: FSHHSWKFG-Toyopearl (peptide)
peptide: FSHHSWKFG-{Toyopearl AF‑Amino‑650M resin}
modifications: not fully specified; printed as FSHHSWKFG-Toyopearl
Take B13: in experiment [1], the affinity, expressed as Kd, was 3630 nM and the Qmax came out at 9.4 mgAAT per mLR.
